Square brackets hold non-standard residues; d marks the D form. Ends that are not written are not given here. Cit = NC(=O)NCCC[C@H](N)C(=O)O
Experiments:
Experiment in all cases: in vitro binding assay to recombinant MHC class II protein
[1] = tested on: MHC class II of the HLA DRB1 0408 genotype; design: species or system human; key: *0101: the listing of the allele in the column for the allele indicates binding; *0401: “0401” in the “Binds to 0401” column indicates binding of the peptide to MHC class II of the HLA DRB1 0401 genotype; *0404: the listing of the allele in the column for the allele indicates binding; *0405: the listing of the allele in the column for the allele indicates binding; *0408: the listing of the allele in the column for the allele indicates binding; *1001: the listing of the allele in the column for the allele indicates binding; “no” or no data indicates no binding to a protein of that genotype
Description: (§1) Binding of the peptides to recombinant MHC class II protein of various alleles has been confirmed in an in vitro binding assay and the results are shown in Tables 1, 2 and 3. In table 1, 2 and 3, the listing of the allele in the column for the allele indicates binding. Thus “0401” in the “Binds to 0401” column indicates binding of the peptide to MHC class II of the HLA DRB1 0401 genotype. “no” or no data indicates no binding to a protein of that genotype. Empty boxes indicate no binding or that binding has not been determined. In the tables it is also indicated if the peptide has a citrulline residue, where “yes” indicates the presence of a citrulline residue and “no” indicates the absence of a citrulline residue.

[2] = tested on: MHC class II of the HLA DRB1 1001 genotype; design: species or system human; key to Binds to 1001: *0101: the listing of the allele in the column for the allele indicates binding; *0401: “0401” in the “Binds to 0401” column indicates binding of the peptide to MHC class II of the HLA DRB1 0401 genotype; *0404: the listing of the allele in the column for the allele indicates binding; *0405: the listing of the allele in the column for the allele indicates binding; *0408: the listing of the allele in the column for the allele indicates binding; *1001: the listing of the allele in the column for the allele indicates binding; “no” or no data indicates no binding to a protein of that genotype; conditions: recombinant MHC class II, HLA DRB1 1001
Description: as §1

[3] = biological target: MHC class II of the HLA DRB1 0101 genotype (Homo sapiens, UniProt P01903+P01911, A100R/D57E/F55L/F60I/F76Y/I96L/L162R/M171V/P40L/Q125E/R42F/V115G/Y59C); design: key: *0101: the listing of the allele in the column for the allele indicates binding; *0401: “0401” in the “Binds to 0401” column indicates binding of the peptide to MHC class II of the HLA DRB1 0401 genotype; *0404: the listing of the allele in the column for the allele indicates binding; *0405: the listing of the allele in the column for the allele indicates binding; *0408: the listing of the allele in the column for the allele indicates binding; *1001: the listing of the allele in the column for the allele indicates binding; “no” or no data indicates no binding to a protein of that genotype
Description: as §1

[4] = biological target: MHC class II of the HLA DRB1 0405 genotype (Homo sapiens, UniProt P01903+P01911, A100R/A169T/D86S/F76Y/I96L/K127E/L162R/M171V/N62H/P40V/Q125Y/R42H/S133A/S149N/S66Y/V115G/V209L/W38E); design: key: *0101: the listing of the allele in the column for the allele indicates binding; *0401: “0401” in the “Binds to 0401” column indicates binding of the peptide to MHC class II of the HLA DRB1 0401 genotype; *0404: the listing of the allele in the column for the allele indicates binding; *0405: the listing of the allele in the column for the allele indicates binding; *0408: the listing of the allele in the column for the allele indicates binding; *1001: the listing of the allele in the column for the allele indicates binding; “no” or no data indicates no binding to a protein of that genotype
Description: as §1

[5] = biological target: MHC class II of the HLA DRB1 0401 genotype (Homo sapiens, UniProt P01903+P01911, A100K/A169T/F76Y/I96L/K127E/L162R/M171V/N62H/P40V/Q125Y/R42H/S133A/S149N/S66Y/V115G/V209L/W38E); design: key to Binds to 0401: *0101: the listing of the allele in the column for the allele indicates binding; *0401: “0401” in the “Binds to 0401” column indicates binding of the peptide to MHC class II of the HLA DRB1 0401 genotype; *0404: the listing of the allele in the column for the allele indicates binding; *0405: the listing of the allele in the column for the allele indicates binding; *0408: the listing of the allele in the column for the allele indicates binding; *1001: the listing of the allele in the column for the allele indicates binding; “no” or no data indicates no binding to a protein of that genotype; conditions: recombinant MHC class II, HLA DRB1 0401
Description: as §1
Thus for these peptides no binding to HLA-DR0401 was observed when citrulline was exchanged with the original amino acid arginine (Table 4). No binding of the citrullinated peptides was seen to HLA-DR 03 or 02 variants.

[6] = biological target: MHC class II of the HLA DRB1 0404 genotype (Homo sapiens, UniProt P01903+P01911, A100R/A169T/F76Y/I96L/K127E/L162R/M171V/N62H/P40V/Q125Y/R42H/S133A/S149N/S66Y/V209L/W38E); design: key: *0101: the listing of the allele in the column for the allele indicates binding; *0401: “0401” in the “Binds to 0401” column indicates binding of the peptide to MHC class II of the HLA DRB1 0401 genotype; *0404: the listing of the allele in the column for the allele indicates binding; *0405: the listing of the allele in the column for the allele indicates binding; *0408: the listing of the allele in the column for the allele indicates binding; *1001: the listing of the allele in the column for the allele indicates binding; “no” or no data indicates no binding to a protein of that genotype
Description: as §1

Row | Substance | Binds to 0408 [1] | Binds to 1001 [2] | Binds to 0101 [3] | Binds to 0405 [4] | Binds to 0401 [5] | Binds to 0404 [6]
1 | type II collagen 384: citrullinated human collagen type II peptide (QGP[Cit]GLPGTPGTDGP; listed as Homo sapiens) | *0408 | *1001 | – | – | – | –
2 | vimentin 34: human vimentin peptide, not citrullinated (NDKARVEVERDNLAE; listed as Homo sapiens) | – | – | no | no | *0401 | –
3 | type II collagen 242: human collagen type II peptide, not citrullinated (GIVGLPGQRGERGFP; listed as Homo sapiens) | – | – | *0101 | *0405 | *0401 | *0404
4 | a-enolase 13: human alpha-enolase peptide, not citrullinated (GVSKAVEHINKTIAP; listed as Homo sapiens) | no | no | *0101 | no | no | *0404
5 | vimentin 166: citrullinated human vimentin peptide (THSK[Cit]TLLIKTVET[Cit]; listed as Homo sapiens) | – | – | no | no | no | *0404
6 | type II collagen 268: human collagen type II peptide, not citrullinated (PQGPRGDKGEAGEPG; listed as Homo sapiens) | – | *1001 | – | – | – | –
7 | vimentin 105: citrullinated human vimentin peptide (YAT[Cit]SSAV[Cit]L[Cit]SSVP; listed as Homo sapiens) | – | – | *0101 | no | *0401 | no
8 | vimentin 108: citrullinated human vimentin peptide (GVXLLQDSVDFSLAD; citrullinated; MOD_RES (3)..(3) Citrulline; listed as Homo sapiens) | – | – | no | no | *0401 | no
9 | vimentin 64: human vimentin peptide, not citrullinated (STEYRRQVQSLTCEV; listed as Homo sapiens) | – | – | *0101 | *0405 | *0401 | –
10 | vimentin 33: human vimentin peptide, not citrullinated (VDQLTNDKARVEVER; listed as Homo sapiens) | – | – | no | no | *0401 | *0404
11 | vimentin 81: human vimentin peptide, not citrullinated (RKLLEGEESRISLPL; listed as Homo sapiens) | – | – | no | no | *0401 | no
12 | vimentin 77: human vimentin peptide, not citrullinated (REYQDLLNVKMALDI; listed as Homo sapiens) | – | – | *0101 | *0405 | – | –
13 | vimentin 111: citrullinated human vimentin peptide (FKNT[Cit]TNEKVELQEL; listed as Homo sapiens) | – | – | *0101 | no | *0401 | No
14 | vimentin 106: citrullinated human vimentin peptide (SAV[Cit]L[Cit]SSVPGV[Cit]LL; listed as Homo sapiens) | – | – | *0101 | *0405 | *0401 | *0404
15 | vimentin 3: human vimentin peptide, not citrullinated (YRRMFGGPGTASRPS; listed as Homo sapiens) | – | – | *0101 | *0405 | *0401 | *0404
16 | vimentin 104: citrullinated human vimentin peptide (SPGGVYAT[Cit]SSAV[Cit]L; listed as Homo sapiens) | – | – | *0101 | no | *0401 | *0404
17 | vimentin 1: human vimentin peptide, not citrullinated (MSTRSVSSSSYRRMF; listed as Homo sapiens) | – | – | *0101 | no | *0401 | *0404
18 | vimentin 117: citrullinated human vimentin peptide (LLAELEQLKGQGKS[Cit]; listed as Homo sapiens) | – | – | *0101 | no | – | No
19 | type II collagen 362: citrullinated human collagen type II peptide (PKGANGDPG[Cit]PGEPG; listed as Homo sapiens) | – | *1001 | – | – | – | –
20 | type II collagen 241: human collagen type II peptide, not citrullinated (LAGQRGIVGLPGQRG; listed as Homo sapiens) | – | – | – | *0405 | no | *0404
21 | type II collagen 263: human collagen type II peptide, not citrullinated (GDRGEAGAQGPMGPS; listed as Homo sapiens) | – | *1001 | – | – | – | –
22 | vimentin 133: citrullinated human vimentin peptide (DNASLA[Cit]LDLE[Cit]KVE; listed as Homo sapiens) | – | – | no | no | *0401 | No
23 | vimentin 41: human vimentin peptide, not citrullinated (NTLQSFRQDVDNASL; listed as Homo sapiens) | – | – | – | *0405 | *0401 | *0404

Reference: patent US10774129B2, “Complexes of types of MHC class II that bind to collagen type II peptides and their use on diagnosis and treatment” (FRAUNHOFER-GESELLSCHAFT ZUR FÖRDERUNG DER ANGEWANDTEN …, priority 2011, dated 2020)
